In patent US20210380648, “DNA BINDING PROTEINS AND USES THEREOF” (Klogenix LLC, published 2021):

How the values were obtained:
[1] = target: ZFP3_Egr1_site3_antisense_VPR; assay: cell_activity; Klotho ELISA in HK-2; settings: tags: NLS, VP64-p65-Rta, HA, V5, His
Experimental: (§1) ELISA components were purchased from IBL and assays were performed according to the manufacturers instructions.
(§2) Klotho is largely expressed in the brain and kidney, and so further investigations were made using cell lines derived from those organs. The ZFPs were transfected into HK-2 cells and Klotho protein levels were measured.

[2] = target: ZFP3_Egr1_site3_antisense (VP64); assay: cell_activity; Klotho protein ELISA in HK-2; also active in HEK293 4 kb promoter reporter; settings: tags: NLS, VP64, HA
Experimental: as §1, §2

ZFP52_VPR = assay: cell_activity; Klotho ELISA in HK-2; settings: tags: NLS, VP64-p65-Rta, HA, V5, His
Experimental: as §1, §2

ZFP52 (VP64) = assay: cell_activity; Klotho ELISA in HK-2; settings: tags: NLS, VP64, HA
Experimental: as §1, §2

Chain of ZFP3_Egr1_site3_antisense_VPR (chain, as listed by the source): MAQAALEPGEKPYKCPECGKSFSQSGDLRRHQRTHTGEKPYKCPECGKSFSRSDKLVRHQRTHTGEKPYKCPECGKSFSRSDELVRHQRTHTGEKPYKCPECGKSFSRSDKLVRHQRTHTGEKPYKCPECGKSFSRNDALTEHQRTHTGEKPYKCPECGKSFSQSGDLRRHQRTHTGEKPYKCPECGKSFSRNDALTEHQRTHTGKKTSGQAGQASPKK
Chain of ZFP52_VPR (chain, as listed by the source): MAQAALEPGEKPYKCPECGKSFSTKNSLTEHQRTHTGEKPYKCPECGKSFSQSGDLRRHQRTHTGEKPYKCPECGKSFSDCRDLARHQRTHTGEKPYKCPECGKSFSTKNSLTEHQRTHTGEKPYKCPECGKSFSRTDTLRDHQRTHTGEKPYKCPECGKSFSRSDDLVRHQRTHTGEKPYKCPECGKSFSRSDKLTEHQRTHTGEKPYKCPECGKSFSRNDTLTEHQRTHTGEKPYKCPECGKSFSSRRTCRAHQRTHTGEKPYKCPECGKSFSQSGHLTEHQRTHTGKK

B1: ZFP3_Egr1_site3 target (dsDNA)
DNA 1: CTGGCACTGGGGGTGGGGGCA
DNA 2: TGCCCCCACCCCCAGTGCCAG
activity [1]: ~3 fold | activity [2]: ~3 fold

B2: ZFP52 target (dsDNA)
DNA 1: CGACGTCCGCGGGCGACGCCTGCCGCACCT
DNA 2: AGGTGCGGCAGGCGTCGCCCGCGGACGTCG
activity (ZFP52_VPR): ~5 fold | activity (ZFP52 (VP64)): ~2 fold
